B1: SNAP91 (parent)
chain: FAQPMMRPPFGAAAVPGTQLSPSP

Variants of: B1
Test: protein stability index of a GFP-peptide fusion (GPS, HEK-293T) (PSI 1-6); higher = more stable
Details: c terminus: a fixed tail appended
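Also: lentivirally expressed fusions sorted by FACS into six bins by GFP to DsRed ratio, PSI derived from sequencing read proportions per bin multiplied by bin number.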

Protein stability index of substitutions, site by site:
A14: V 2.61; E 3.01; I 2.82; W 1.81; S 2.87; G 2.8; P 3.08; M 3.03; Q 3.25; N 3.17; T 2.45; D 2.79; K 3.21; Y 3.04; C 2.81; L 2.78; H 2.99; F 2.65; R 3.31
P16: Y 2.15; R 3.36; L 2.74; I 2.22; C 2.77; H 2.71; N 3.2; E 2.38; T 3.37; W 1.78; F 2.53; A 3.29; D 2.99; M 2.69; S 3.02; G 2.81; V 3.33; K 3.25; Q 3.19
T18: R 3.41; Y 2.58; G 2.72; C 2.92; E 2.6; I 2.84; V 2.76; K 2.75; Q 3.15; F 2.89; W 2.29; M 2.95; S 3.02; H 2.82; N 2.87; A 3.1; P 3.14; L 2.95; D 2.6
G17: T 3.24; M 2.84; V 2.85; I 2.88; L 3.46; W 2.49; R 3.89; K 3.17; A 3.11; H 3.22; S 2.81; F 2.69; D 3.04; Y 2.74; N 3.44; Q 3.48; C 2.71; E 2.71
P9: G 3.45; E 3.94; I 2.57; N 3.14; T 3.59; A 3.51; K 2.71; H 3.52; W 1.91; V 3.26; Y 2.34; F 1.63; Q 3.91; L 1.91; S 3.75; M 3.1; C 3.06; R 3.77; D 4.04
A2: Q 3.33; V 1.71; T 3.09; S 3.81; G 3.52; N 4.59; I 1.94; H 2.27; M 3.62; P 3.72; F 2.96; K 3.84; L 2.62; W 2.45; R 3.85; Y 3.56
Q3: C 2.58; D 2.12; H 2.86; V 3.45; G 2.8; K 3.32; A 3.3; N 2.98; E 2.17; M 2.93; Y 1.82; L 3.01; F 3.04; S 3.61; T 3.56; I 2.55; R 3.42; W 2.32
M5: D 3.52; P 4.01; T 3.07; R 4.15; N 3.22; F 2.54; A 3.49; C 2.68; W 1.96; V 3.01; E 3.61; I 2.59; L 3.4; G 2.77; Y 2.64; S 3.31; K 2.61; H 2.86; Q 3.48
P8: I 2.49; V 3.11; R 3.03; C 2.39; L 2.87; E 3.75; K 2.97; Q 3.36; H 3.16; G 2.97; W 2.64; S 2.96; T 3.02; D 3.5; Y 2.79; A 3.82; M 3.01; N 2.98; F 2.97
Q19: E 2.72; K 2.41; W 2.4; F 2.64; M 2.89; L 2.5; S 2.84; T 2.87; V 2.96; C 2.57; H 3.08; N 3.17; I 2.87; A 2.98; G 2.96; D 3.22; R 3
A12: W 2.77; D 3.82; H 2.96; Y 2.53; G 3.5; I 2.58; M 3.03; C 2.46; T 2.91; K 3.16; S 2.91; E 3.39; P 2.7; Q 3.62; N 3.54; L 2.42; F 2.83; R 3.33; V 2.55
V15: L 3.08; S 3.28; R 3.31; M 3.01; K 2.92; Y 2.83; G 2.96; I 2.82; A 3.54; W 2.52; F 2.78; Q 3.42; T 3.5; H 3.28; E 2.98; D 2.73; C 3.21; N 3.27
A13: G 3.44; C 2.39; L 2.63; P 3.76; T 3.36; D 3.38; V 2.73; Q 3.32; Y 2.75; E 3.24; N 3.46; W 1.62; F 3.13; R 3.65; K 3.13; I 2.54; S 3.25; M 2.79; H 3.13
F10: H 3.58; P 4.31; D 4.52; K 3.83; W 2.1; T 4.14; R 3.86; A 3.98; I 3.99; L 4.12; Y 2.83; N 4.14; S 3.81; C 2.95; V 4.7; Q 4.33; E 3.99; M 4.12; G 4.2
P4: R 2.54; K 1.97; E 2.77; H 2.75; T 2.53; D 2.7; Q 2.02; W 1.83; S 2.26; V 2.33; C 2.48; M 1.61; A 2.05; I 1.96; Y 1.83; L 1.65; G 2.01; F 1.44; N 2.36
M6: N 3.19; T 3.68; L 3.13; V 3.87; Q 3.9; R 3.1; A 2.89; E 3.6; P 3.62; Y 2.88; I 3.77; K 3.65; S 3.1; G 3.01; D 3.46; W 2.61; C 2.76; H 4.01; F 3.14
G11: L 3.04; C 2.96; F 2.86; R 4.01; E 3.43; K 3.55; T 3.44; A 3.74; M 3.29; P 3.98; N 3.67; V 3.35; I 2.73; S 4.04; Q 4.35; D 3.7; W 1.88; H 2.91; Y 2.91
R7: D 3.13; Q 2.62; Y 1.89; H 2.81; A 3.55; I 2.4; S 3.32; T 2.67; G 2.23; V 2.49; E 3.22; K 3.34; C 2.3; L 2.38; W 1.7; P 2.87; M 2.42; F 1.55; N 2.92

Reference: the supplement of paper PMC10567573
